Legend:
Grb2 SH2 = Grb2 SH2 (UniProt P62993); assay: SH2 binding enrichment of the phosphorylated peptide, bacterial display (enrichment ratio); higher = better substrate or ligand; peptides without Tyr show the background
c-Src SH2 = assay: as above
SHP2-C SH2 = assay: as above
EPHB2 = EPHB2 (UniProt P29323); assay: phosphorylation enrichment, bacterial display (enrichment ratio); higher = better substrate or ligand; peptides without Tyr show the background
AncSZ = assay: as above
Fer (mouse) = assay: as above
FGFR1 = FGFR1 (UniProt P11362); assay: as above
c-Src = assay: as above
FGFR3 = FGFR3 (UniProt P22607); assay: as above
c-Abl (mouse) = assay: as above
MERTK = MERTK (UniProt Q12866); assay: as above
Jak2 = Jak2 (UniProt O60674); assay: as above
Hck = Hck (UniProt P08631); assay: as above
EPHB1 = EPHB1 (UniProt P54762); assay: as above
Fyn = Fyn (UniProt P06241); assay: as above
Fes = Fes (UniProt P07332); assay: as above
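Throughout, for SH2 binding enrichment of the phosphorylated peptide, bacterial display: peptide library displayed on the E. coli surface as eCPX fusions, selected cells deep-sequenced, score is each peptide's frequency after selection divided by its frequency in the input.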
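Throughout, for phosphorylation enrichment, bacterial display: 11-residue human phosphosite peptides and single-mutation variants displayed on the E. coli surface, counted by deep sequencing, each peptide's frequency after selection divided by its frequency in the unselected input library; frequency after pTyr selection over input frequency; kinase dosed for 20-30% of maximal phosphorylation in three min.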

Chain of Fyn (P06241 whole entry, looked up): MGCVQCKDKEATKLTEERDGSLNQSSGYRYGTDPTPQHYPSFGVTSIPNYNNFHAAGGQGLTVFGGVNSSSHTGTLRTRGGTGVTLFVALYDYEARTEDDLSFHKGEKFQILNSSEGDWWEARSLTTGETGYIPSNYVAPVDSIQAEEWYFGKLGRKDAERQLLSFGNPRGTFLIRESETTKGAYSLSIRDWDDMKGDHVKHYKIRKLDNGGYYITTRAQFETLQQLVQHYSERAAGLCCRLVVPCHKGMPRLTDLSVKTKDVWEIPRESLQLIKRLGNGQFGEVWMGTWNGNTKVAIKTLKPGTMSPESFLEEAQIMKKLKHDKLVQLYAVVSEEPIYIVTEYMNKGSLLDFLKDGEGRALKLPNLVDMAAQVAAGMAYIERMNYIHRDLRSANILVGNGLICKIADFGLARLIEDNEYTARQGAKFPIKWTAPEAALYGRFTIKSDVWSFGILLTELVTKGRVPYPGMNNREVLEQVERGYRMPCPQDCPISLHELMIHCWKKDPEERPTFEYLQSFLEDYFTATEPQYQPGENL
Chain of EPHB1 (P54762 whole entry, looked up): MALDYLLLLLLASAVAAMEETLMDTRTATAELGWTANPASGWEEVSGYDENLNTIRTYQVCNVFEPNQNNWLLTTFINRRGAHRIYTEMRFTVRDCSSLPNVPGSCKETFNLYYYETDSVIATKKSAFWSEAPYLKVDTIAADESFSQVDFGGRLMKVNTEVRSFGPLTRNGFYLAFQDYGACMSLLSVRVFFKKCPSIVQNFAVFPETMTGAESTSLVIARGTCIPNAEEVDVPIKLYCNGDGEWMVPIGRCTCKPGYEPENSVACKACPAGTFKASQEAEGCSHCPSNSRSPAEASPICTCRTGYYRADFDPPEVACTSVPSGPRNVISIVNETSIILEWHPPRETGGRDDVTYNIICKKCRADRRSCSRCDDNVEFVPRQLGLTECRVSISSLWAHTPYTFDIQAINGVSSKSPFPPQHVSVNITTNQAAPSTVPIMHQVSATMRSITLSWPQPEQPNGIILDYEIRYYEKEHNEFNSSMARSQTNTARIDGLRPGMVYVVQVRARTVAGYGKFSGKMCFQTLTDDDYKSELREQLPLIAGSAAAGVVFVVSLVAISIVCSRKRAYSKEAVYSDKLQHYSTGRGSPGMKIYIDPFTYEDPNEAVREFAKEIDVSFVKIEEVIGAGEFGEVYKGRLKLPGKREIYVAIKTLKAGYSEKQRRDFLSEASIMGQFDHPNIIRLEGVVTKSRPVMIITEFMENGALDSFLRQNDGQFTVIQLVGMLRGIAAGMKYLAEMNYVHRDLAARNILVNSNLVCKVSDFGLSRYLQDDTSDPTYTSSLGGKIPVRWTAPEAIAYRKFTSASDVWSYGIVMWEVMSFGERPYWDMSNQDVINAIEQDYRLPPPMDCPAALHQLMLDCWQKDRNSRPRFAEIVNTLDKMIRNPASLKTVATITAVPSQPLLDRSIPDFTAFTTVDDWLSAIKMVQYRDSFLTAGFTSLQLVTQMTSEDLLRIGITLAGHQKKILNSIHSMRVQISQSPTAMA
Chain of Fes (P07332 whole entry, looked up, the tested form may be a part): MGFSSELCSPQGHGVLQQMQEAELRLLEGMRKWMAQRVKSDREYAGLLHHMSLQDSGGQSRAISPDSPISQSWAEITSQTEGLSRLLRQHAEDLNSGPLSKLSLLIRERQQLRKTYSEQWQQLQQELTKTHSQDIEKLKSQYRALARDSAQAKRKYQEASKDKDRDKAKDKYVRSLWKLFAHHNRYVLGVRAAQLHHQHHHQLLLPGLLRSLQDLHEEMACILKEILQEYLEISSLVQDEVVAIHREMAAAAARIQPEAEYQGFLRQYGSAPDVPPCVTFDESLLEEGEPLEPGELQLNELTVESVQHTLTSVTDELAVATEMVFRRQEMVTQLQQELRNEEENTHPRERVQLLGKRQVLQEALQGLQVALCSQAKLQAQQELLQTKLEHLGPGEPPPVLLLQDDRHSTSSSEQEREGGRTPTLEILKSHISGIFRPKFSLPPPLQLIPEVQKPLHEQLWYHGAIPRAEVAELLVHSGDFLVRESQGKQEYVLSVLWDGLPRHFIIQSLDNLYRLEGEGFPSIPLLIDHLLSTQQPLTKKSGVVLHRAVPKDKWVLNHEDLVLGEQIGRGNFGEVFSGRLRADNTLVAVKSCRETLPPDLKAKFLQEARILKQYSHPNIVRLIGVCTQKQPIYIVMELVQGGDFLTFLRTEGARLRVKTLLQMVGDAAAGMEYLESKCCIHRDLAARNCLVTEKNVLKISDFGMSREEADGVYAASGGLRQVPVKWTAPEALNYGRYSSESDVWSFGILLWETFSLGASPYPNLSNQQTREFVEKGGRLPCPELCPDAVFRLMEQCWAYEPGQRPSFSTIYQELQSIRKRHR
Chain of FGFR3 (P22607 whole entry, looked up): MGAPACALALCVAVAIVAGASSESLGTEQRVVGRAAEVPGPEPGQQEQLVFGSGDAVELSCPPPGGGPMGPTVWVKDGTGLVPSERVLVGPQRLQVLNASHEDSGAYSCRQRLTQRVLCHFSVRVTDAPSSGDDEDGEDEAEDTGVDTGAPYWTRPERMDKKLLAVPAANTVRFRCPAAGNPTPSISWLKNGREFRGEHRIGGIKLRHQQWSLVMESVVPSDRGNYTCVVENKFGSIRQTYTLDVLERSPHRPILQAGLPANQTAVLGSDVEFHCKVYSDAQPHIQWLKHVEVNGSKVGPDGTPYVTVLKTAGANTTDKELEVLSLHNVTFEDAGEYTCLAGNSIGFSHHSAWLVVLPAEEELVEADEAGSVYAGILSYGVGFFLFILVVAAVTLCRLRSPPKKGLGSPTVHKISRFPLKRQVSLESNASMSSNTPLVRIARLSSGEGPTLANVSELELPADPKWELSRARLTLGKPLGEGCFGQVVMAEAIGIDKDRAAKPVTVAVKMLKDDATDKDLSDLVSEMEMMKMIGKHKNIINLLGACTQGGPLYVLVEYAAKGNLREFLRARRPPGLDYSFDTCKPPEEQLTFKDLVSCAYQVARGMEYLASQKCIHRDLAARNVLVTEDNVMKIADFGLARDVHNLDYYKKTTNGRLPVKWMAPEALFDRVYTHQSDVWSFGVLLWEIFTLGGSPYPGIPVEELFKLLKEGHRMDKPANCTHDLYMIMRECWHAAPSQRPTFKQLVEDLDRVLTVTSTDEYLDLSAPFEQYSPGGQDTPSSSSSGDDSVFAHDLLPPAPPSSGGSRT
Chain of Hck (P08631 whole entry, looked up): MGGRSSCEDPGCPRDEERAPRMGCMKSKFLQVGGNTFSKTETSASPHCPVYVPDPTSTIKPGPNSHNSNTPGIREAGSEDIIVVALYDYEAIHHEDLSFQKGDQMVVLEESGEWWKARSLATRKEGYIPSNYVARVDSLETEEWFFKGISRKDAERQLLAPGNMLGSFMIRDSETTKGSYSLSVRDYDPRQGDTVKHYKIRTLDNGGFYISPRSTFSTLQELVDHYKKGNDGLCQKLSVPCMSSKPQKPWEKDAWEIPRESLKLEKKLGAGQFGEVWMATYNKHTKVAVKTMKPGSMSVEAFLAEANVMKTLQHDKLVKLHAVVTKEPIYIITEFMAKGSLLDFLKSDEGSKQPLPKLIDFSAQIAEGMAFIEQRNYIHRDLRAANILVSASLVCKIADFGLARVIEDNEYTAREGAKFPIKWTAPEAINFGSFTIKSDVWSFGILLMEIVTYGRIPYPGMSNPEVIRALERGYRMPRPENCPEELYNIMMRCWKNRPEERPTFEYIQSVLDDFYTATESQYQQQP
Chain of EPHB2 (P29323 whole entry, looked up): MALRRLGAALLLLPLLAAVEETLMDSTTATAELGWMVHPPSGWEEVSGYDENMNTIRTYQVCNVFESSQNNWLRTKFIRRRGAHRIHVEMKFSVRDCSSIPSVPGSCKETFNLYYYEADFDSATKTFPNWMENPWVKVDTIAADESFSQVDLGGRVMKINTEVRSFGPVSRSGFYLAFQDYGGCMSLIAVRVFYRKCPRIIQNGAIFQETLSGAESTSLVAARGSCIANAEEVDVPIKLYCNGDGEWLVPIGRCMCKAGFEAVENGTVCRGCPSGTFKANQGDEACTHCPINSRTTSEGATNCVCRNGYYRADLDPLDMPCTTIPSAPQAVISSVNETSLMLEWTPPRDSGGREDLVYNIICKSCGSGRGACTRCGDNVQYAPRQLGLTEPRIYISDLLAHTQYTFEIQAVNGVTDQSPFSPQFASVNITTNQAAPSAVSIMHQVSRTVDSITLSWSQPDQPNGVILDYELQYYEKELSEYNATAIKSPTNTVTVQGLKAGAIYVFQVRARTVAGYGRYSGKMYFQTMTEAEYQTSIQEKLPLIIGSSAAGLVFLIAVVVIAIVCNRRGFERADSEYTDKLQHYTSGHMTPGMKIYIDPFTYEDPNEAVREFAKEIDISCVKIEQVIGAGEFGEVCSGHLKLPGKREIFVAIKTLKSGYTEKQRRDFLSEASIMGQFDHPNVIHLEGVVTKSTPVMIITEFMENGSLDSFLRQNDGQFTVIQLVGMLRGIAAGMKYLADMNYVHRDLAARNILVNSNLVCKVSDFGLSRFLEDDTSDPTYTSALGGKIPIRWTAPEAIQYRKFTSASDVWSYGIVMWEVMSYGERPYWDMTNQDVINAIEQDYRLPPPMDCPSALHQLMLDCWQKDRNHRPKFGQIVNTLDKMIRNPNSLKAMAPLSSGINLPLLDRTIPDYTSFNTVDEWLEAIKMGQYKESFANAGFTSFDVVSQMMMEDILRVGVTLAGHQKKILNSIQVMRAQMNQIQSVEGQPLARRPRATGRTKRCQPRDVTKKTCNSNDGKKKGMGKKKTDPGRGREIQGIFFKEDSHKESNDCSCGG

Row | Sequence | SH2 binding enrichment (Grb2 SH2) | SH2 binding enrichment (c-Src SH2) | SH2 binding enrichment (SHP2-C SH2) | phosphorylation enrichment (EPHB2) | phosphorylation enrichment (AncSZ) | phosphorylation enrichment (Fer (mouse)) | phosphorylation enrichment (FGFR1) | phosphorylation enrichment (c-Src) | phosphorylation enrichment (FGFR3) | phosphorylation enrichment (c-Abl (mouse)) | phosphorylation enrichment (MERTK) | phosphorylation enrichment (Jak2) | phosphorylation enrichment (Hck) | phosphorylation enrichment (EPHB1) | phosphorylation enrichment (Fyn) | phosphorylation enrichment (Fes)
1 | KVDKEYEVRVR [GHR_Y226] | 1.05 | 0.589 | 1.06 | 0.547 | 0.711 | 0.396 | 0.52 | 0.41 | 0.473 | 0.579 | 0.361 | 0.587 | 0.488 | 0.459 | 0.407 | 0.864
2 | LHSDHYSPSGR [TMPRSS12_Y23_Y19H] | 0.995 | 0.637 | 0.557 | 0.672 | 1.79 | 0.746 | 0.485 | 0.503 | 0.871 | 0.569 | 0.617 | 0.414 | 0.851 | 0.431 | 0.778 | 0.585
3 | GIVEEYQLPYY [BMPR1A_Y453] | 0.862 | 4.36 | 0.997 | 0.642 | 3 | 0.66 | 1.06 | 3.47 | 0.946 | 1.16 | 0.567 | 1.29 | 0.63 | 0.611 | 0.647 | 1.06
4 | EEGNPYFSGAR [MCCC2_Y520_S523G_YF] | 0.868 | 0.536 | 0.667 | 0.462 | 0.938 | 0.347 | 0.521 | 1.37 | 0.686 | 0.687 | 0.444 | 0.802 | 0.864 | 0.516 | 0.637 | 0.945
5 | GYEEAYSVFKK [PAFAH1B1_Y28] | 0.831 | 2.54 | 1.25 | 0.605 | 1.35 | 0.339 | 0.491 | 4.68 | 0.681 | 1.96 | 0.654 | 0.754 | 4.07 | 0.498 | 2.37 | 0.947
6 | VDEVLYEDSSA [MTHFS_Y197_T202A] | 0.834 | 0.551 | 0.979 | 0.577 | 1.47 | 2.08 | 0.679 | 0.647 | 0.609 | 0.923 | 0.508 | 1.29 | 0.716 | 0.637 | 0.502 | 1.16
7 | HKGASYVFRLS [PTPRD_Y891] | 1.56 | 0.97 | 2.11 | 0.791 | 1 | 0.412 | 0.536 | 0.583 | 0.818 | 0.935 | 0.512 | 1.26 | 0.468 | 0.593 | 0.539 | 1.34

Continued, in another order:

Row | SH2 binding enrichment (Grb2 SH2) | SH2 binding enrichment (c-Src SH2) | SH2 binding enrichment (SHP2-C SH2) | Sequence | phosphorylation enrichment (EPHB2) | phosphorylation enrichment (AncSZ) | phosphorylation enrichment (Fer (mouse)) | phosphorylation enrichment (FGFR1) | phosphorylation enrichment (c-Src) | phosphorylation enrichment (FGFR3) | phosphorylation enrichment (c-Abl (mouse)) | phosphorylation enrichment (MERTK) | phosphorylation enrichment (Jak2) | phosphorylation enrichment (Hck) | phosphorylation enrichment (EPHB1) | phosphorylation enrichment (Fyn) | phosphorylation enrichment (Fes)
8 | 1.25 | 0.513 | 0.717 | ADCRFYTFPQM [GAMT_Y223_A224T_YF] | 0.813 | 1.88 | 1.99 | 0.584 | 1.24 | 0.895 | 0.784 | 5.08 | 1.2 | 0.534 | 1.07 | 0.811 | 1.48
9 | 2.1 | 1.73 | 1.96 | LLRFLYFFVCS [SLC34A2_Y109_G106R] | 0.585 | 0.948 | 0.573 | 0.72 | 0.587 | 1.22 | 0.697 | 0.744 | 1.69 | 0.704 | 0.606 | 0.519 | 1.59
10 | 0.895 | 0.511 | 0.751 | FGYPGYQSKHY [TIMP3_Y177] | 0.465 | 0.592 | 0.443 | 0.349 | 0.534 | 0.546 | 0.496 | 0.435 | 0.607 | 0.414 | 0.512 | 0.516 | 0.8
11 | 1.15 | 0.47 | 0.781 | INITIYGKTFH [EFHC1_Y177_R182H] | 0.513 | 1.11 | 0.579 | 0.429 | 0.468 | 0.817 | 0.958 | 0.473 | 1.08 | 0.544 | 0.546 | 0.519 | 1.44
12 | 0.786 | 0.769 | 0.475 | METKGYHSLPE [NR3C2_Y6] | 0.367 | 0.696 | 0.399 | 0.434 | 0.446 | 0.563 | 0.704 | 0.515 | 0.804 | 0.377 | 0.48 | 0.287 | 1.01
13 | 0.849 | 0.6 | 0.76 | AVSHRYDLGGL [QPRT_Y162_A158V] | 0.524 | 0.515 | 0.344 | 0.347 | 0.385 | 0.42 | 0.379 | 0.379 | 0.467 | 0.415 | 0.403 | 0.337 | 0.527
14 | 0.945 | 1.15 | 0.895 | PKEQKYSFLQD [GH1_Y68_N73D] | 0.693 | 0.948 | 0.435 | 0.597 | 0.628 | 0.532 | 1.05 | 0.858 | 0.809 | 0.619 | 0.605 | 0.523 | 1.16
15 | 0.637 | 0.413 | 0.502 | HKNNNYEPNLF [BRCA2_Y57] | 0.89 | 0.739 | 0.62 | 1.2 | 0.579 | 0.508 | 0.563 | 0.539 | 0.477 | 0.61 | 1.95 | 0.577 | 0.767
16 | 0.788 | 1.25 | 0.606 | YDEYRYRSVIK [CFTR_Y517] | 0.589 | 1.04 | 0.529 | 0.435 | 2.15 | 0.67 | 1.05 | 0.706 | 1.16 | 1.14 | 0.584 | 1.76 | 0.973

— the supplement of paper PMC10065799, “High-throughput profiling of sequence recognition by tyrosine kinases and SH2 domains using bacterial peptide display” (eLife, 2023)
